The text below walks through data of paper PMC12810918.

One may read the Km as the substrate concentration at which the rate is half of its maximum. As a reminder, the kcat is the number of substrate molecules converted per active site and unit of time at saturation.

Series [1] concerns N=C(N)NCCC[C@H](N)C(=O)O. The series can be described thus: purified protein. The following applies: 40 mM Hepes pH 7.0, 0-20 mM arginine.
Substrate in series [2]: N=C(N)NCCC[C@H](N)C(=O)O
The series is described as follows: colorimetric determination of citrulline formation. Format: biochemical, Giardia duodenalis. The note with it: 40 mM Hepes pH 7.0, 0-20 mM arginine. The text has this: colorimetric determination of citrulline formation on ADIB (recombinant ADI, assemblage B, isolate GS) | recombinantly expressed ADIAI, ADIAII and ADIB in bacteria and determined the Km values

Regarding “ADIE (recombinant ADI, assemblage E, isolate P15) (Giardia lamblia P15)”, in series [1], the Km worked out at 340 ± 30 µM.

B1: ADIB (recombinant ADI, assemblage B, isolate GS) (Giardia duodenalis ATCC 50581) (protein)
chain: MTDFTKDKEKLAQATQGGETERAEIVVVHLPQGTSFLTSLNPEGNLLEESMCPDELKRDHEGFQAILKEKGCRVYMPYDVLSEASPAEREVLMDQAMASLKYEFHPSGARITPKMKYCVSDEYKRKVLSALSNRNLVDVILSEPVIHLIPGVRNTALVTKSVEIHDSNNMVFMRDQQITTRRGVVMGQFQAPQRRREQVFALIFWKRLGVRVVGDCREGGPHCMLEGGDFIPASPGLTMMGVGLRSTYVGARYLMSKDLLGTRRFAVVKDCFDQHQDRMHLDCTCSIIHDKLVVLDEYICSGMGLRYVDEWIDIGAEAAKKAKSSAVICGTYALVKANVEFQQWLDENGYTIIRIPHEYQLAYGCNNLNLGNNCVLSVHQPTIDFIKASPAYISYCKSHNLSNGLDLVYVPFRGITRMYGSLHCASQVIYRTPATPATVKACEQEGDGLAAIYEKNGEPVDAAGKNFDCVLYIPSTVDDLVDSLGISLGDDVAPSREIIADVHKLYQKLISEGRVPYITWRMPSMPVVSLKGAARAGSLKAILDKIPQLPSFTPKVVDGAPAAYTRYLGLEQADICIDIS
On to B1, for which, in series [2], the Km was 360 ± 20 µM and the kcat came out at 1.99 ± 0.16 s⁻¹.
